Measurements: the supplement of paper PMC10567573

B1: EHMT1 (parent)
chain: FHKDCASRVNNASYCPHCGEESSK
B2: MGC16075 (parent)
chain: AGSRQALSFEVPPCNYDPEKWIQ

Variants of: B1
Assay: protein stability index of a GFP-peptide fusion (GPS, HEK-293T) (PSI 1-6); higher = more stable
Details: c terminus: a fixed tail appended
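Also: lentivirally expressed fusions sorted by FACS into six bins by GFP to DsRed ratio, PSI derived from sequencing read proportions per bin multiplied by bin number.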

Protein stability index: each site, then its substitutions
S13: N 3.6; Q 3.8; M 3.13; C 2.37; P 3.12; T 3.72; D 3.81; W 2.15; F 2.34; G 3.97; Y 2.34; L 2.62; H 3.66; V 2.76; I 2.17; R 3.16; A 3.36; K 3.46; E 3.77
A6: I 3.23; P 3.83; N 3.41; G 3.59; V 3.5; C 4.35; W 1.96; T 3.6; F 2.28; Q 4.04; Y 2.26; K 3.53; R 2.97; M 3.07; E 3.6; L 2.85; H 3.34; D 3.52; S 3.52
V9: W 2.31; Y 3.21; H 4.71; L 3.73; R 3.63; C 4.31; I 3.65; G 4.14; A 3.47; N 3.39; Q 3.74; E 3.87; K 3.66; P 3.84; D 3.94; F 2.92; M 3.37; S 3.79; T 3.73
R8: S 3.49; F 2.35; H 4.23; P 3.37; Q 3.59; N 3.94; W 1.91; E 2.86; L 3.39; M 3.37; A 3.78; D 3.43; T 3.1; V 3.34; G 3.97; K 3.46; C 3.66; I 3.94; Y 2.63
P16: N 3.29; A 3.24; T 3.42; V 3.89; Y 2.58; H 3.15; W 1.66; R 2.96; G 3.24; M 3.07; F 2.73; C 3.11; E 3.94; I 3.36; Q 3.61; D 3.52; S 3.23; L 3.35; K 3.57
H2: I 2.08; D 4.8; C 5.31; W 2.62; E 4.62; L 3.58; S 3.1; M 3.45; V 1.96; F 3.27; R 3.65; A 2.61; P 3.37; K 4.17; Q 3.1; N 4.18; G 3.6; Y 3.69; T 3
S7: N 2.83; F 2.16; G 3.47; K 4.04; Y 2.12; T 3.28; R 3.97; L 3.44; V 3.72; E 3.54; M 3.54; Q 3.23; W 2.76; D 3.23; P 2.87; H 4.18; I 3.54; A 3.71; C 4.27
D4: A 3.16; H 2.84; T 2.47; Y 2.02; W 1.96; I 2.56; N 3.3; R 2.3; F 2.04; L 2; S 3.12; E 3.55; V 2.41; M 1.83; C 4.12; G 2.56; K 2.59; P 1.88; Q 2.73
N11: G 3.37; I 2.22; L 2.53; E 3.46; H 3.82; Y 2.68; P 3.25; W 1.89; F 2.48; K 3.54; D 3.64; V 3.12; C 3.21; A 2.91; M 3.36; R 3.47; Q 3.47; T 3.21; S 3.08
C5: N 2.61; K 2.13; V 2.59; W 2.55; E 2.82; Y 2.25; H 2.3; R 2.36; Q 2.25; T 2.25; L 2.4; P 1.77; F 2.72; D 3.19; S 2.56; I 2.42; A 2.53; G 2.52; M 2.46
N10: I 3.08; C 3.75; V 2.92; K 3.1; G 3.74; A 3.6; W 2.37; Q 3.52; R 2.99; H 3.94; T 3.03; S 3.24; L 3.31; E 3.69; P 3.33; Y 1.95; F 2.82; M 2.98; D 3.9
F1: S 4.77; D 4.77; K 4.62; C 5.43; M 4.9; T 4.43; N 4.87; W 4.02; H 5.16; L 4.78; A 4.71; V 4.78; R 4.59; I 4.55; Q 5.09; G 5.15; P 4.43; Y 3.85; E 5.17
A12: N 3.37; R 3.33; W 2.54; C 3.35; G 4.34; S 3.29; P 3.25; Y 2.85; V 3; H 3.22; E 3.81; T 3.31; M 3.24; D 4.27; F 2.48; K 3.36; I 2.95; L 3.06; Q 3.96
Y14: H 3.47; R 3.52; P 3.9; V 3.44; D 3.77; C 3.66; G 3.38; W 2.45; S 3.26; K 3.59; A 3.31; E 4.05; Q 4; L 3.82; T 3.73; I 3.47; M 3.59; N 3.75; F 3.36
H17: C 3.45; D 3.84; L 3.05; F 2.96; A 3.68; G 3.18; E 3.47; I 3.35; M 3.14; K 3.43
C15: R 3.49; S 3.55; F 3.04; E 4.22; W 2.08; K 3.68; P 3.75; M 3.16; N 3.88; L 3.45; Y 2.74; Q 3.67; V 3.67; T 3.59; D 3.89; H 3.56; G 3.82; A 3.32; I 3.32
K3: W 1.78; E 3.83; V 2.92; D 3.47; T 2.45; N 2.69; P 2.22; F 1.92; Q 2.27; M 2.29; A 2.58; G 2.73; L 2.57; Y 2.61; H 2.9; I 2.7; C 4.57; S 2.01; R 2.57

Variants of: B2
Assay: as above
Details: c terminus: native

Protein stability index, by site and new letter:
I22: V 2.75; S 5.03; P 4.72; Y 2.85; T 4.85; W 3.22; Q 4.78
Q23: H 2.55; W 1.24; Y 2; P 4.37; E 1.97; V 4.81; M 1.82; N 2.83; F 2.23; G 3.04; I 2.43; K 1.91; D 1.34
